From patent US20220356216A1

Columns and labels:
[1] = target: mRFP1-sspB-Nano (mRFP1 fused to the sspB-Nano protein, his-MBP removed by TEV protease); assay: fluorescence microscopy of RFP-sspB-Nano recruitment to synthetic cells with membrane-bound protein; activation by blue laser light
[2] = target: mRFP1-sspB-Nano (mRFP1 fused to the sspB-Nano protein, his-MBP removed by TEV protease); assay: fluorescence microscopy of RFP-sspB-Nano recruitment to synthetic cells with membrane-bound protein; activation by coelenterazine (bioluminescence)
[3] = target: mRFP1-sspB-Nano (mRFP1 fused to the sspB-Nano protein, his-MBP removed by TEV protease); assay: fluorescence microscopy of RFP-sspB-Nano recruitment to synthetic cells with membrane-bound protein; activation by 488 nm laser

fold difference of mRFP1 intensity between dark and light conditions [1] | fold increase of normalized mRFP1 intensity at the membrane against the dark conditions [2] | fold increase of mRFP1 signal at the membrane against the dark conditions [3] | Substance
> 8 fold | 2.5 fold |  | his-Gluc-iLID (fusion of N-terminal Gaussia luciferase and C-terminal iLID with a linker peptide and an N-terminal his-tag)
 |  | 1.5 fold | his-iLID (his-tagged improved light-induced dimer)
